{
  "source": "patent US20130018176A1",
  "about": "“METHODS OF PRODUCING HYBRIDOMAS AND MONOCLONAL ANTIBODIES AND ANTIBODIES PRODUCED THEREBY” (AMGEN INC., priority 2007, published 2013)",
  "molecules": {"B1": {"name": "Antibody Ab43: murine anti-human hepcidin monoclonal antibody generated by viral immunization; CDRs SEQ ID NOs: 16-21 (antibody, V domains shown)", "VH": "QIQLVQSGPELKKPGETVKISCKASGYTFTTYGMSWVKQAPGKGLKWMGWINTYSGVPTYADDFKGRFAFSLETSASTAYLQINNLKNEDTATYFCASLWYYGRAFDYWGQGTTLTVSS", "VL": "NIVLTQSPASLAVSLGQRATISCRASESVDSYGNSFMHWYQQKPGQPPKLLIYLASNLESGVPARFSGSGSRTDFTLTIDPVEADDAATYYCQQNNEDRTFGGGTKLEIK"}},
  "key": {"[1]": {"test_system": "rcyno hepcidin", "sequence (as listed by the source)": "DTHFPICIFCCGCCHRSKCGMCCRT", "assay": "BIAcore solution equilibrium binding analysis on immobilized antibody", "parameters": "species or system cyno", "protocol": "The following example describes KinExA and BIAcore binding analysis for various antibodies to recombinant cyno hepcidin (rcyno).\nB) BIAcore Solution Equilibrium Binding Analysis for mAb R9 and Ab43 Binding to rcynoHepc.\nAntibody surface immobilization: antibodies R9 and Ab43 were immobilized on a CM5 chip. The immobilization was performed at a flow rate 10 uL/min of running buffer (DPBS: Dulbecco's Phosphate Buffer Saline1X, GIBCO 14190, with 0.005% BIAcore surfactant P-20) according to manufacturer's instructions. The carboxylated matrix of the sensor chip was first activated with a 100 ul injection of 1:1 mixture of EDC (75 mg/mL N-ethyl-N-(dimethylamine-propyl)carbodiimide in water, from BIAcore) and NHS (11.5 mg/mL N-hydroxysuccinimide in water, from BIAcore). 180 ul of antibodies (−20 ug/ml in 10 mM Na-acetate pH4.0) was injected to immobilize onto the sensor chip at 30 uL/min. […]\nBIAcore analysis: Fixed concentrations of rcynoHepc were incubated with various concentrations of mAb R9 and Ab43 at room temperature for several hours before run through the immobilized antibody surfaces. […] The equilibrium dissociation constant (KD) was calculated from nonlinear regression analysis of the competition curves using a one-curve one-site homogeneous binding model (KinEx™ software, Sapidyne Instruments Inc., Boise Id.)."}, "[2]": {"biological_target": "T1, mature human hepcidin (SEQ ID NO: 9) (Homo sapiens, UniProt P81172)", "T1 construct": "made in house; host or cells: recombinant", "assay": "Epitope specificity: antibody binding to immobilized hepcidin surface after pre-complex with hepcidin variants (BIAcore)", "conditions": "interpretation of Table 6", "protocol": "(§1) The epitope specificity of anti-human hepcidin antibodies was evaluated by assessing ability of the antibodies to bind to mature human hepcidin (SEQ ID NO: 9) after pre-complex formation with different hepcidin variants.\n(§2) Recombinant hepcidin was immobilized on a CM5 chip according to manufacturer's instructions at a flow rate 10 μL/min of running buffer (DPBS: Dulbecco's Phosphate Buffer Saline1X, GIBCO 14190, with 0.005% BIAcore surfactant P-20). The carboxylated matrix of the sensor chip was first activated with a 100 μL injection of 1:1 mixture of EDC (75 mg/mL N-ethyl-N-(dimethylamine-propyl)carbodiimide in water, from Biacore) and NHS (11.5 mg/mL N-hydroxysuccinimide in water, from Biacore). 180 μL of rhHepc (˜20 μg/ml in 10 mM Na-acetate pH4.0) was injected to immobilize onto the sensor chip at 30 μL/min. The excess reactive groups of the sensor chip were deactivated with an injection of 100 μL of ethanolamine (1.0M, from Biacore).\n(§3) Forms of hepcidin used for the pre-complex were: correctly folded hepcidin as a positive control, the C1-C8, C3-C6 hepcidin variant (see Example 9), hepcidin 20 (N-terminally truncated, see Example 9) and linear hepcidin (Example 9). 1 nM solutions of antibody (2.41, 2.7, 43, and R9) were preincubated with 10 nM of each antigen at room temperature for several hours before run through the immobilized hepcidin surface. The binding signal obtained was proportional to the concentration of free antibody in solution at equilibrium.\n(§4) Some antibodies require the five amino acids at the N-terminus of the molecule (e.g. Ab43 and to a lesser extent, R9)."}, "[3]": {"biological_target": "T2, mature human hepcidin (SEQ ID NO: 9) (Homo sapiens, UniProt P81172)", "T2 construct": "made in house; host or cells: recombinant", "T2 sequence (P81172 60-84)": "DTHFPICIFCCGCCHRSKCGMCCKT", "assay": "Epitope specificity: antibody binding to immobilized hepcidin surface after pre-complex with hepcidin variants (BIAcore)", "conditions": "interpretation of Table 6", "protocol": "as §1, §2, §3, §4", "remark": "listed apart in the source"}, "[4]": {"test_system": "mature human hepcidin (SEQ ID NO: 9)", "assay": "Epitope specificity: antibody binding to immobilized hepcidin surface after pre-complex with hepcidin variants (BIAcore)", "protocol": "as §1, §2, §3, §4"}, "[5]": {"biological_target": "T3, synthetic human hepcidin (Homo sapiens, UniProt P81172)", "T3 construct": "made in house; host or cells: chemical synthesis (Fmoc solid phase), oxidatively folded", "T3 sequence (P81172 60-84 limits assumed)": "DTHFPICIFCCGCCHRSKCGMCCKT", "assay": "Iron-responsive beta-lactamase assay in 293/Fpn/BLA cells", "type": "cell-based", "conditions": "50 ng/mL synthetic human hepcidin, 2.5 ug/mL ferric citrate, read-out: EC50, decreased intracellular concentration of iron", "description": "The effect of anti-human hepcidin antibodies on this hepcidin-mediated iron sequestration was evaluated in vitro. […] These 293/Fpn/BLA cells, taken from a 70-80% confluent culture, were plated at 2.8×10^5 cells/mL in DMEM (Invitrogen Cat#11965) 5% FBS (Invitrogen Cat#10099-141) PSQ (Invitrogen Cat#10378-016), 90 uL/well (25,000 cells/well) in BioCoat Poly-D Lysine coated plates (Becton-Dickinson Cat#35-6640) and incubated at 37C with 5% CO2. At the end of the same day, a solution of assay medium (DMEM 5% FBS PSQ) with 100 ug/mL doxycycline was made, 10 uL/well of it added to the plate, and the plate incubated overnight or for at least 20 hours. […] Mixtures were added at 100 uL/well and incubated overnight at 37C, 5% CO2 in a cell culture incubator. Plates were then removed from the incubator and equilibrated to room temperature for 10 minutes before adding 20 uL/well of the prepared Invitrogen GeneBlazer CCF4 A/M development reagent (Invitrogen Kit# K1085) and incubating for 90 minutes in the dark. Development reagent was also added to 16 wells of a control assay plate without cells containing 100 uL assay medium (DMEM 5% FBS PSQ) and incubated for the same time. Blue & Green fluorescence signals were then read on an Envision Multilabel Reader (Perkin-Elmer Inc.) by exciting at 409 nm and reading emissions at 447 nm (blue) and 520 nm (green)."}},
  "data": [
    {"molecule": "B1", "values": [
      {"measurement": "binding affinity to rcyno hepcidin", "setting": "[1]", "value": "significant binding affinity"},
      {"measurement": "Binding to Solution Epitopes, Hepc20", "setting": "[2]", "value": "− (100% antibody binding to the hepcidin surface and therefore no inhibition by hepcidin in solution)"},
      {"measurement": "Binding to Solution Epitopes, Folded Hepcidin", "setting": "[3]", "value": "++++ (0% antibody binding to the hepcidin surface and therefore 100% inhibition by hepcidin in solution)"},
      {"measurement": "Binding to Hepcidin Surface, C1-C8 C3-C6", "setting": "[4]; 1 nM antibody preincubated with 10 nM C1-C8, C3-C6 hepcidin variant", "value": 25, "unit": "%"},
      {"measurement": "Binding to Solution Epitopes, Linear Hepcidin", "setting": "[4]; interpretation of Table 6", "value": "− (100% antibody binding to the hepcidin surface and therefore no inhibition by hepcidin in solution)"},
      {"measurement": "EC50", "setting": "[5]", "value": 13.8, "unit": "nM"}
    ]}
  ]
}
